Experimental data as given in patent EP1248849B1.

Biological target: mouse LSR (mouse) (UniProt Q99KG5)
Test: cell-based or functional assay

Chain of UniProt Q99KG5 (Q99KG5 36-594): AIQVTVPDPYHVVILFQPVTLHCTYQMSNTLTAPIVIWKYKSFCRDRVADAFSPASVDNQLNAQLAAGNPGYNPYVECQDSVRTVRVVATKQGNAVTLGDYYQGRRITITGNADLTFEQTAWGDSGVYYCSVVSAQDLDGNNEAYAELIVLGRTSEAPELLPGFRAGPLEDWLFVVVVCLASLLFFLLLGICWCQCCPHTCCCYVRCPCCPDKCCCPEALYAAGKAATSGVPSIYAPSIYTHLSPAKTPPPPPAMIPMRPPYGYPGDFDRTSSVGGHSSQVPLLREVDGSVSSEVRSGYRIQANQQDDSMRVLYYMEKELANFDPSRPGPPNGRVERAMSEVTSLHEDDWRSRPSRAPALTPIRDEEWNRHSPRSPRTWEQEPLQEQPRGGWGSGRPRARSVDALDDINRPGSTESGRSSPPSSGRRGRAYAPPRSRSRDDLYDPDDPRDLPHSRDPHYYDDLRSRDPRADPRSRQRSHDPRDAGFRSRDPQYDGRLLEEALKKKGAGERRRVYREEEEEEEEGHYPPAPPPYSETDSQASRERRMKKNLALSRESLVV

For “125I-mouse leptin (from UniProt P41160 22-167) (ligand)”, the leptin uptake in a liver cell line (BPRCL), gOBG3 against OBG3 was > 30%.
